Assay results as given in PMC9482650, “Quantitative fragmentomics allow affinity mapping of interactomes” (Nature Communications, 2022).

B1: MYOT, Q9UBF9 (peptide)
chain: QSGLYESEEL
B2: CACNA1A, O00555 (peptide)
chain: PYSESDDDWC
B3: OR8G1, Q15617 (peptide)
chain: KKMLQRRTLL
B4: GPR12, P47775 (peptide)
chain: AQRARSPSDV

Key:
Experiment in all cases: holdup assay
Design in all cases: key: below the threshold = too weak to quantify, mostly under pKd 3.1 to 4
Conditions in all cases: plain residues with an end cap or a label only (N-terminal biotin on a linker: ado-ado)
[1] = biological target: PARD3_3, Q8TEW0
[2] = biological target: NOS1, P29475
[3] = biological target: DLG1_3, Q12959
[4] = biological target: Inadl_9, Q8NI35
[5] = biological target: T1, SYNJ2BP, P57105
T1 sequence (P57105 8-110, limits assumed, looked up): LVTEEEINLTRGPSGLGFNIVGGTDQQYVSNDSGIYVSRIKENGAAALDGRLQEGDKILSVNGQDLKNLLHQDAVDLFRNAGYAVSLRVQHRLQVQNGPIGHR

[6] = biological target: T2, LIN7B, Q9HAP6
T2 sequence (Q9HAP6 88-185, limits assumed, looked up): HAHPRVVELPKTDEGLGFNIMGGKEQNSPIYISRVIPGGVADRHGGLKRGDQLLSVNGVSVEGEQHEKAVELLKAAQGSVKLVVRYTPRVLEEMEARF

[7] = biological target: TJP2_1, Q9UDY2
[8] = biological target: DLG4_3, P78352
[9] = biological target: DLG5_1, Q8TDM6
[10] = biological target: FRMPD3, Q5JV73
[11] = biological target: MAGI1_2, Q96QZ7
[12] = biological target: T3, APBA3_1, O96018
T3 sequence (O96018 389-490, limits assumed, looked up): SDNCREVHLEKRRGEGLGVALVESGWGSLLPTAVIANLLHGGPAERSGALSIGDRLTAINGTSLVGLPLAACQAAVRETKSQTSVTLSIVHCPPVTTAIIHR

[13] = biological target: T4, DLG3_3, Q92796
T4 sequence (Q92796 374-475, limits assumed, looked up): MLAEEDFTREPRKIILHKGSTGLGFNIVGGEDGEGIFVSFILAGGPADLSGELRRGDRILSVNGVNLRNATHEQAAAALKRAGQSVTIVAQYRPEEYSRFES

[14] = biological target: T5, PARD3B_1, Q8TEW8
T5 sequence (Q8TEW8 196-299, limits assumed, looked up): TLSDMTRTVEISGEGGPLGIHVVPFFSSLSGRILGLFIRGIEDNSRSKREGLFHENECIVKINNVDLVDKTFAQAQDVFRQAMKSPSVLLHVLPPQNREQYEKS

[15] = biological target: NHERF4_1, Q86UT5-2
[16] = biological target: T6, SNTG2, Q9NY99
T6 sequence (Q9NY99 68-166, limits assumed, looked up): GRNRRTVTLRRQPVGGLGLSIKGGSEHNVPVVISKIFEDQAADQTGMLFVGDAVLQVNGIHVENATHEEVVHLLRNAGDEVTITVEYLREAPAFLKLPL

[17] = biological target: T7, MPDZ_10, O75970
T7 sequence (O75970 1624-1722, limits assumed, looked up): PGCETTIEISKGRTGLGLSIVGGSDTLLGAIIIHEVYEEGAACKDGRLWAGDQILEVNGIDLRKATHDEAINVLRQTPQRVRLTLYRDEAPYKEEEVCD

[18] = biological target: T8, LRRC7, Q96NW7
T8 sequence (Q96NW7 1440-1537, limits assumed, looked up): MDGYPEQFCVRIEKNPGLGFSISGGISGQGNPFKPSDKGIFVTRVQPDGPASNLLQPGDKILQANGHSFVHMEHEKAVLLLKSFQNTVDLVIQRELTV

[19] = biological target: GRASP, Q7Z6J2
[20] = biological target: SNX27, Q96L92
[21] = biological target: IL16_4, Q14005
[22] = biological target: Inadl_6, Q8NI35
[23] = biological target: MAST1, Q9Y2H9
[24] = biological target: AHNAK1, Q09666
[25] = biological target: NHERF2_2, Q15599
[26] = biological target: Inadl_2, Q8NI35
[27] = biological target: T9, RADIL, Q96JH8
T9 sequence (Q96JH8 971-1071, limits assumed, looked up): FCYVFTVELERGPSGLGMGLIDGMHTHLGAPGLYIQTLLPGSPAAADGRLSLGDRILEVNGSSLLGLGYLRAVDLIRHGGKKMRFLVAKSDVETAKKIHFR

[28] = biological target: T10, MPP6, Q9NZW5
T10 sequence (Q9NZW5 125-219, limits assumed, looked up): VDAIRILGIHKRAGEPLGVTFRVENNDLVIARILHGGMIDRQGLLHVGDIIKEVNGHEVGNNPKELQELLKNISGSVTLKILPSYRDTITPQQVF

Sequence of AHNAK1, Q09666 (Q09666 4-100): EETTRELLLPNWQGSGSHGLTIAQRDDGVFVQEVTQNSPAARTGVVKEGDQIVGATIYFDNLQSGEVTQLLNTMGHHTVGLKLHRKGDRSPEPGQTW
Sequence of MAST1, Q9Y2H9 (Q9Y2H9 962-1065): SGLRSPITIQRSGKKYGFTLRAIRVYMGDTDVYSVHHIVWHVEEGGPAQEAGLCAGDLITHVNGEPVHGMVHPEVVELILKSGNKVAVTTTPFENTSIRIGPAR
Sequence of DLG5_1, Q8TDM6 (Q8TDM6 617-713): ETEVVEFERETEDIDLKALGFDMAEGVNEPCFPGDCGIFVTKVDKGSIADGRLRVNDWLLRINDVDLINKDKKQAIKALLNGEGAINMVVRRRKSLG
Sequence of Inadl_9, Q8NI35 (Q8NI35 1530-1615): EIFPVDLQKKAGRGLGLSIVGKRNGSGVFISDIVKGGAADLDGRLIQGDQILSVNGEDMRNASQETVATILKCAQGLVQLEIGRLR
Sequence of Inadl_6, Q8NI35 (Q8NI35 1058-1167): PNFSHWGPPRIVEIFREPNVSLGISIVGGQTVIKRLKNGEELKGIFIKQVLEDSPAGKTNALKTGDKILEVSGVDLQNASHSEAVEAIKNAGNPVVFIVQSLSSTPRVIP
Sequence of MAGI1_2, Q96QZ7 (Q96QZ7 456-580): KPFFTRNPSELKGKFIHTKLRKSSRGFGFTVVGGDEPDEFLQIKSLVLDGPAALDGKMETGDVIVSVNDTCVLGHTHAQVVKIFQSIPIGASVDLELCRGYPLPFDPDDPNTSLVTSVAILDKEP
Sequence of DLG1_3, Q12959 (Q12959 457-571): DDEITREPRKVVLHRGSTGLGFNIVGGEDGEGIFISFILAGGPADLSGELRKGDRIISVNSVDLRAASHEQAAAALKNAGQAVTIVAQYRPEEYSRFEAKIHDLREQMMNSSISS
Sequence of GRASP, Q7Z6J2 (Q7Z6J2 96-193): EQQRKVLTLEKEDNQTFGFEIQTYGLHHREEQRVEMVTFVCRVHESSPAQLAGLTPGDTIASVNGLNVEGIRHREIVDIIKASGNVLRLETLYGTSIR
Sequence of DLG4_3, P78352 (P78352 306-403): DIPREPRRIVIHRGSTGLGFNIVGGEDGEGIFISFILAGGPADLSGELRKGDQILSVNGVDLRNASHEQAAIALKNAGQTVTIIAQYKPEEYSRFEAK
Sequence of PARD3_3, Q8TEW0 (Q8TEW0 582-685): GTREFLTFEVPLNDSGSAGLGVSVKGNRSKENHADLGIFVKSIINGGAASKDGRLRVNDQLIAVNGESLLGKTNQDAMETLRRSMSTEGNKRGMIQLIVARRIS
Sequence of IL16_4, Q14005 (Q14005 1229-1329): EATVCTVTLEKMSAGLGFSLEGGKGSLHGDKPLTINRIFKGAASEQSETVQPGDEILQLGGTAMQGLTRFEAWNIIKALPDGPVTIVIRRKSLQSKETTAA
Sequence of NHERF4_1, Q86UT5-2 (Q86UT5 other isoform, or with tags, fused parts or gaps): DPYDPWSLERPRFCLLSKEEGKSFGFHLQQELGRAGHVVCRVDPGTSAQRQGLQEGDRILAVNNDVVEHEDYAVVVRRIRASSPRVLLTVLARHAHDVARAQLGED
Sequence of FRMPD3, Q5JV73 (Q5JV73 12-100): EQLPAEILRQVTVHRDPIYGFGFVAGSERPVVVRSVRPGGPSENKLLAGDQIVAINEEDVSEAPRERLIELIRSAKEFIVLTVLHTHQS
Sequence of NOS1, P29475 (P29475 9-101): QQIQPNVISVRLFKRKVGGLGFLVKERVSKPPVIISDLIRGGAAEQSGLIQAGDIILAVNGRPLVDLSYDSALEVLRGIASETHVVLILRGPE
Sequence of NHERF2_2, Q15599 (Q15599 142-238): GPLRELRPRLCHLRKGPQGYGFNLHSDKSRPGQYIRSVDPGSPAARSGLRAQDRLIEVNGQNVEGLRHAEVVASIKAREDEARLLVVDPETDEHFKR
Sequence of TJP2_1, Q9UDY2 (Q9UDY2 24-128): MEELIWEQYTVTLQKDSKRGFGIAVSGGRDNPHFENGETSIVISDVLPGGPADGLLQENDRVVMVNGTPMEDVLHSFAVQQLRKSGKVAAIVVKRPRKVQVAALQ
Sequence of Inadl_2, Q8NI35 (Q8NI35 238-335): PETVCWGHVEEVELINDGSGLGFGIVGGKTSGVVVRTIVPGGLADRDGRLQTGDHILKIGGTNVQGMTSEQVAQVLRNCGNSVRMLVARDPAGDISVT

| Binder | pKd [1] | pKd [2] | pKd [3] | pKd [4] | pKd [5] | pKd [6] | pKd [7] | pKd [8] | pKd [9] | pKd [10] | pKd [11] | pKd [12] | pKd [13] | pKd [14] | pKd [15] | pKd [16] | pKd [17] | pKd [18] | pKd [19] | pKd [20] | other results |
| --- | --- | --- | --- | --- | --- | --- | --- | --- | --- | --- | --- | --- | --- | --- | --- | --- | --- | --- | --- | --- | --- |
| B1 | 3.59 | below the threshold | below the threshold | below the threshold | 3.59 | 3.66 | below the threshold | below the threshold | below the threshold | below the threshold | below the threshold | below the threshold | below the threshold | 3.86 | 4.41 | below the threshold | below the threshold | below the threshold | 4.09 | below the threshold | pKd [21]: below the threshold; pKd [22]: below the threshold; pKd [23]: below the threshold; pKd [24]: below the threshold; pKd [25]: 4.04; pKd [26]: below the threshold; pKd [27]: below the threshold; pKd [28]: below the threshold |
| B2 | 3.89 | 3.48 | below the threshold | below the threshold | 3.6 | 3.9 | 3.64 | below the threshold | below the threshold | 3.48 | below the threshold | below the threshold | below the threshold | 3.61 | 4.01 | below the threshold | below the threshold | below the threshold | below the threshold | 4.09 | pKd [21]: below the threshold; pKd [22]: below the threshold; pKd [23]: below the threshold; pKd [24]: below the threshold; pKd [25]: 3.74; pKd [26]: below the threshold; pKd [27]: below the threshold; pKd [28]: below the threshold |
| B3 | below the threshold | 3.92 | below the threshold | below the threshold | below the threshold | below the threshold | 4.32 | below the threshold | below the threshold | below the threshold | 4.85 | below the threshold | below the threshold | 4.47 | 4.51 | below the threshold | below the threshold | below the threshold | 5.05 | 3.75 | pKd [21]: below the threshold; pKd [22]: below the threshold; pKd [23]: 4.41; pKd [24]: below the threshold; pKd [25]: 3.61; pKd [26]: below the threshold; pKd [27]: 3.66; pKd [28]: below the threshold |
| B4 | below the threshold | 3.75 | below the threshold | below the threshold | 4.14 | 3.75 | below the threshold | below the threshold | below the threshold | below the threshold | below the threshold | below the threshold | below the threshold | below the threshold | below the threshold | below the threshold | 4.09 | below the threshold | below the threshold | below the threshold | pKd [21]: below the threshold; pKd [22]: below the threshold; pKd [23]: below the threshold; pKd [24]: below the threshold; pKd [25]: below the threshold; pKd [26]: below the threshold; pKd [27]: below the threshold; pKd [28]: below the threshold |
